Source: article PMC5286394, “Architecture of the yeast Elongator complex” (EMBO Reports, 2016)
Blank lines part the entries; values can stand above or below the binder they belong to.

Columns and labels:
[1] = biological target: the molecule itself; test: negative-stain EM reconstruction with integrative modelling (EM map and cross-links); Elp123 sub-complex from Elp1-TAP purification, 0.01% glutaraldehyde, gel filtration; 1% uranyl acetate; C2 symmetry, 27 Å
[2] = biological target: T1, Elp123 sub-complex within the endogenous holoElongator (Elp6-TAP purification) (S. cerevisiae (endogenous in strain …, UniProt Q06706 1-1349; P42935 1-788; Q02908 1-557); test: negative-stain EM reconstruction with integrative modelling (EM map and cross-links); holoElongator from Elp6-TAP purification, 0.01% glutaraldehyde, gel filtration; 1% uranyl acetate; 31 Å; settings: both partners purified
T1 construct: Elp1, S. cerevisiae, endogenous protein; Elp2, S. cerevisiae, endogenous protein; Elp3, S. cerevisiae, endogenous protein; copies: 2 + 2 + 2

[3] = biological target: T2, untagged full-length Elp1 (S. cerevisiae, UniProt Q06706 1-1349); test: pull-down; GST pull-down: 20 μg GST-tagged protein and increasing amounts of untagged partner with glutathione Sepharose, 2 h at 4°C, 20 mM Tris pH 7.5, 150 mM NaCl, 5 mM DTT, 0.1% Tween-20; five washes; SDS–PAGE, Coomassie; settings: both partners purified
T2 construct: Elp1, Elongator subunit 1, S. cerevisiae; source: E. coli BL21 pSarRare, purified (NiNTA, TEV cleavage, second NiNTA, gel filtration); not shown: His6, N-terminal, cleaved; GST, N-terminal, cleaved
T2 sequence (looked up): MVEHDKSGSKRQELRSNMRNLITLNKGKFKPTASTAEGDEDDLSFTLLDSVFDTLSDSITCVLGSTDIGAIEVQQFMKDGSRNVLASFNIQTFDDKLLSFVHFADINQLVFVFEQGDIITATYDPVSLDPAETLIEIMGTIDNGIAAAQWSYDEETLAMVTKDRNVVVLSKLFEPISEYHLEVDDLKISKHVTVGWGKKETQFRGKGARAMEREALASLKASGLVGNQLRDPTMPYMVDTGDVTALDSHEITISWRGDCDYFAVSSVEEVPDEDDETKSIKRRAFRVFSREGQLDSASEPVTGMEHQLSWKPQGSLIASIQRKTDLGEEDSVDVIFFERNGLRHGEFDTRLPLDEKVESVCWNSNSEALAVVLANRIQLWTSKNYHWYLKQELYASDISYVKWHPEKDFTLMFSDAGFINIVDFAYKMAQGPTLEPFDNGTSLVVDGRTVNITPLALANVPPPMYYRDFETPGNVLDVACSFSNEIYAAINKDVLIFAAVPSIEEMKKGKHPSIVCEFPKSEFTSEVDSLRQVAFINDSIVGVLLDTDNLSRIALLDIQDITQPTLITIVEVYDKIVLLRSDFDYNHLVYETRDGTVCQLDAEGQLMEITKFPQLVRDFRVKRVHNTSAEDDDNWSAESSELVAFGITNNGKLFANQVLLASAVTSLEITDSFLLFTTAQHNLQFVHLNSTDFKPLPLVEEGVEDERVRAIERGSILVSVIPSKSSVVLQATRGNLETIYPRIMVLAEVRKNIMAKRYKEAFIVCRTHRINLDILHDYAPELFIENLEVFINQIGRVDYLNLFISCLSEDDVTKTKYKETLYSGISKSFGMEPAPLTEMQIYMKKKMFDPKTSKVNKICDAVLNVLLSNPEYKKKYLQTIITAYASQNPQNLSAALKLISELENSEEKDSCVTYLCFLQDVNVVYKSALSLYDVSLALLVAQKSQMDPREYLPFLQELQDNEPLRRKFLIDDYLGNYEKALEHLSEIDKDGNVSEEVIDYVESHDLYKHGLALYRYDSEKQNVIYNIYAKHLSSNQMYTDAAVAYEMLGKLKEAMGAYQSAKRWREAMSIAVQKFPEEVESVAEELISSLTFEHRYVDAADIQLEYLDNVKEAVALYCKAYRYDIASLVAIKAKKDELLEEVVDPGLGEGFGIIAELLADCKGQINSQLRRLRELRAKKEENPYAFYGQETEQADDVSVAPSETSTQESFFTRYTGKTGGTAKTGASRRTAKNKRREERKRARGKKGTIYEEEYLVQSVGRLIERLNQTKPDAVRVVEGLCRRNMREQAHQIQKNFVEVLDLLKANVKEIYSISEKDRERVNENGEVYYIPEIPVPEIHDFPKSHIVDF

T1 sequence (P42935 whole entry, one chain of several): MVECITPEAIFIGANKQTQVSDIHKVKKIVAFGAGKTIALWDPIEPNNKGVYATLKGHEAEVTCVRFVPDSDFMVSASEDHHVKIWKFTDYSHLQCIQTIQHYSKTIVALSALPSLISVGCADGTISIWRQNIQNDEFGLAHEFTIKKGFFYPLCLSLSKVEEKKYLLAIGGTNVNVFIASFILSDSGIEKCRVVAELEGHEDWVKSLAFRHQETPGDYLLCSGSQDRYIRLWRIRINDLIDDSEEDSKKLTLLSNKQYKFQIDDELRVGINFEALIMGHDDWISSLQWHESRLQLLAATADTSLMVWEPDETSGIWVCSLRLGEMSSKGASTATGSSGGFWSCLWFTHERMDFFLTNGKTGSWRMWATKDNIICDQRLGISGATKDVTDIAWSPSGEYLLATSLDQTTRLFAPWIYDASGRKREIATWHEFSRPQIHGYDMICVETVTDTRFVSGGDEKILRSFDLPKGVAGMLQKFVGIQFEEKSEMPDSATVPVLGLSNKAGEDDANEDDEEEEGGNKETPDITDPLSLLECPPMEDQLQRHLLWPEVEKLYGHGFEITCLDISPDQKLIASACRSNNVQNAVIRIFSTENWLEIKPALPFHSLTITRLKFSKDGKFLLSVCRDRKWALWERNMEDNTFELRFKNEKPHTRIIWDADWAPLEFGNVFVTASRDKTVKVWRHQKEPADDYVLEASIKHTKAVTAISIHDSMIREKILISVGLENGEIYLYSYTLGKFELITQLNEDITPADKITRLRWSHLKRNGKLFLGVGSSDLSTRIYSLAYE

B1: endogenously TAP-tagged Elp1 (natural protein, UniProt Q06706 1-1349, looked up)
chain: MVEHDKSGSKRQELRSNMRNLITLNKGKFKPTASTAEGDEDDLSFTLLDSVFDTLSDSITCVLGSTDIGAIEVQQFMKDGSRNVLASFNIQTFDDKLLSFVHFADINQLVFVFEQGDIITATYDPVSLDPAETLIEIMGTIDNGIAAAQWSYDEETLAMVTKDRNVVVLSKLFEPISEYHLEVDDLKISKHVTVGWGKKETQFRGKGARAMEREALASLKASGLVGNQLRDPTMPYMVDTGDVTALDSHEITISWRGDCDYFAVSSVEEVPDEDDETKSIKRRAFRVFSREGQLDSASEPVTGMEHQLSWKPQGSLIASIQRKTDLGEEDSVDVIFFERNGLRHGEFDTRLPLDEKVESVCWNSNSEALAVVLANRIQLWTSKNYHWYLKQELYASDISYVKWHPEKDFTLMFSDAGFINIVDFAYKMAQGPTLEPFDNGTSLVVDGRTVNITPLALANVPPPMYYRDFETPGNVLDVACSFSNEIYAAINKDVLIFAAVPSIEEMKKGKHPSIVCEFPKSEFTSEVDSLRQVAFINDSIVGVLLDTDNLSRIALLDIQDITQPTLITIVEVYDKIVLLRSDFDYNHLVYETRDGTVCQLDAEGQLMEITKFPQLVRDFRVKRVHNTSAEDDDNWSAESSELVAFGITNNGKLFANQVLLASAVTSLEITDSFLLFTTAQHNLQFVHLNSTDFKPLPLVEEGVEDERVRAIERGSILVSVIPSKSSVVLQATRGNLETIYPRIMVLAEVRKNIMAKRYKEAFIVCRTHRINLDILHDYAPELFIENLEVFINQIGRVDYLNLFISCLSEDDVTKTKYKETLYSGISKSFGMEPAPLTEMQIYMKKKMFDPKTSKVNKICDAVLNVLLSNPEYKKKYLQTIITAYASQNPQNLSAALKLISELENSEEKDSCVTYLCFLQDVNVVYKSALSLYDVSLALLVAQKSQMDPREYLPFLQELQDNEPLRRKFLIDDYLGNYEKALEHLSEIDKDGNVSEEVIDYVESHDLYKHGLALYRYDSEKQNVIYNIYAKHLSSNQMYTDAAVAYEMLGKLKEAMGAYQSAKRWREAMSIAVQKFPEEVESVAEELISSLTFEHRYVDAADIQLEYLDNVKEAVALYCKAYRYDIASLVAIKAKKDELLEEVVDPGLGEGFGIIAELLADCKGQINSQLRRLRELRAKKEENPYAFYGQETEQADDVSVAPSETSTQESFFTRYTGKTGGTAKTGASRRTAKNKRREERKRARGKKGTIYEEEYLVQSVGRLIERLNQTKPDAVRVVEGLCRRNMREQAHQIQKNFVEVLDLLKANVKEIYSISEKDRERVNENGEVYYIPEIPVPEIHDFPKSHIVDF
notes: Elp1, S. cerevisiae, endogenous protein with TAP tag (Elp1-TAP::TRP1); also called Elp1-TAP
- stoichiometry N [1]: 2

- stoichiometry N [2]: 1
B2: hetero-hexameric Elp456 ring within the endogenous holoElongator (Elp6-TAP purification) (complex)
chain 1: MSFRKRGEILNDRGSGLRGPLLRGPPRTSSTPLRTGNRRAPGNVPLSDTTARLKKLNIADESKTKMGLDSSHVGVRPSPATSQPTTSTGSADLDSILGHMGLPLGNSVLVEEQSTTEFHSILGKLFAAQGIVHNRISDSSADKTRNGDTHVIVLSLNQMFAKELPGIYKGSRKQMKKNLISEEESKVTVQNLNETQRSTPSRYKDLKIAWKYKLADEKRLGSPDRDDIQQNSEYKDYNHQFDITTRLMPAPIASELTFIAPTQPVSTILSQIEQTIKRNDKKLIRIVIPSLLHPAMYPPKMFESSEIIGLMHGVRSLVKKYYERVVLFASISIDIITPPLLVLLRNMFDSVINLEPFNQEMTEFLERVYKSQPGKIQHGLVHILKLPVFTDRGEMRVLKSEWAFKNGRKKFEIEQWGIPVDDAEGSAASEQSHSHSHSDEISHNIPAKKTKISLDY
chain 2: MASSSHNPVILLKRILSLTESSPFILCLDSIAQTSYKLIQEFVHQSKSKGNEYPIVYISFETVNKPSYCTQFIDATQMDFVHLVKQIISYLPAATATQAKKHMVIIDSLNYISTEYITRFLSEIASPHCTMVATYHKDIKDENRTVIPDWNNNYPDKLTLLQFMATTIVDIDVVLTGTLDTEEVSELLNEFRIPRGLNNDIFQLRLVNKRKSGRSLEYDFIVNSNTHEYELLSTTKQEEESSSNGLETPEMLQGLTTFNLGTSNKQKLAKDQVALPFLEAQSFGQGGAIVYEYEKDDDYDEEDPYEDPF
chain 3: MGSVQRQDLVLFSDQSVLPAHFFQDSNSHNLFFITHQSCTQPLWMINALVETHVLGSPSSLNESSSSMLPSSTRSHAVLASFIHEQNYFTNSLNKLKIPSNNYNVLDFLSDFIVNNIHNKPRDKILSDVLAKFSAAIQNNPTDTIVIIEQPELLLSLVSGLTCSELNNKFITPLLRQCKVLIIVSNSDIFNIDEYDASVHSSNLQNFYKSSFIKSMINLNLNPLKTGFAKDVTGSLHVCRGGAPIATSNTSLHVVENEYLYLNEKESTKLFYR
notes: Elp4, S. cerevisiae, endogenous protein; Elp5, S. cerevisiae, endogenous protein; Elp6, S. cerevisiae, endogenous protein with TAP tag; Only part of the TAP tag is left after TEV elution; copies: 2 + 2 + 2

- binding result [3]: binds
B3: GST-tagged Elp3 KAT domain (aa348–557) (domain or fragment, S. cerevisiae, UniProt Q02908 348-557, looked up)
chain: SYSANALVDLVARILALVPPWTRIYRVQRDIPMPLVTSGVDNGNLRELALARMKDLGTTCRDVRTREVGIQEVHHKVQPDQVELIRRDYYANGGWETFLSYEDPKKDILIGLLRLRKASKKYTYRKEFTSQRTSIVRELHVYGSVVPLHSRDPRKFQHQGFGTLLMEEAERIAKEEHGSEKISVISGVGVRNYYGKLGYELDGPYMSKRI
notes: Elp3, S. cerevisiae, lysine acetyl transferase (KAT) domain, residues 348–557; also called KAT domain of Elp3; source: E. coli BL21 pSarRare, purified (NiNTA, gel filtration); not shown: His6, N-terminal, kept; GST, N-terminal, kept
